Test results as given in US8530168B2, “Fusion protein comprising a Caspase domain and a nuclear hormone receptor binding domain and methods and uses thereof” (Helmholtz Zentrum Munich Deutsches Forschungszentrum fuer …, priority 2007, dated 2013).

B1: myrCasp8-ER(T2): murine Caspase-8 domain with N-terminal myristoylation motif fused to ER(T2) ligand binding domain, SEQ ID NO: 23 (protein)
chain: MGSSKSKPKDPSQRSESRTSDKVYQMKNKPRGYCLIINNHDFSKAREDITQLRKMKDRKGTDCDKEALSKTFKELHFEIVSYDDCTANEIHEILEGYQSADHKNKDCFICCILSHGDKGVVYGTDGKEASIYDLTSYFTGSKCPSLSGKPKIFFIQACQGSNFQKGVPDEAGFEQQNHTLEVDSSSHKNYIPDEADFLLGMATVKNCVSYRDPVNGTWYIQSLCQSLRERCPQGDDILSILTGVNYDVSNKDDRRNKGKQMPQPTFTLRKKLFFPPLEPSAGDMRAANLWPSPLMIKRSKKNSLALSLTADQMVSALLDAEPPILYSEYDPTRPFSEASMMGLLTNLADRELVHMINWAKRVPGFVDLTLHDQVHLLECAWLEILMIGLVWRSMEHPVKLLFAPNLLLDRNQGKCVEGMVEIFDMLLATSSRFRMMNLQGEEFVCLKSIILLNSGVYTFLSSTLKSLEEKDHIHRVLDKITDTLIHLMAKAGLTLQQQHQRLAQLLLILSHIRHMSNKGMEHLYSMKCKNVVPLYDLLLEAADAHRLHAPTSRGGASVEETDQSHLATAGSTSSHSLQKYYITGEAEGFPATA
modifications: N-terminal myristoylation motif; fusion protein myrCasp8-ER(T2)
B2: Cre-ER(T2): fusion of Cre recombinase to ER(T2) ligand binding domain, negative control, SEQ ID NO: 5 (protein)
chain: MSNLLTVHQNLPALPVDATSDEVRKNLMDMFRDRQAFSEHTWKMLLSVCRSWAAWCKLNNRKWFPAEPEDVRDYLLYLQARGLAVKTIQQHLGQLNMLHRRSGLPRPSDSNAVSLVMRRIRKENVDAGERAKQALAFERTDFDQVRSLMENSDRCQDIRNLAFLGIAYNTLLRIAEIARIRVKDISRTDGGRMLIHIGRTKTLVSTAGVEKALSLGVTKLVERWISVSGVADDPNNYLFCRVRKNGVAAPSATSQLSTRALEGIFEATHRLIYGAKDDSGQRYLAWSGHSARVGAARDMARAGVSIPEIMQAGGWTNVNIVMNYIRNLDSETGAMVRLLEDGDLEPSAGDMRAANLWPSPLMIKRSKKNSLALSLTADQMVSALLDAEPPILYSEYDPTRPFSEASMMGLLTNLADRELVHMINWAKRVPGFVDLTLHDQVHLLECAWLEILMIGLVWRSMEHPVKLLFAPNLLLDRNQGKCVEGMVEIFDMLLATSSRFRMMNLQGEEFVCLKSIILLNSGVYTFLSSTLKSLEEKDHIHRVLDKITDTLIHLMAKAGLTLQQQHQRLAQLLLILSHIRHMSNKGMEHLYSMKCKNVVPLYDLLLEAADAHRLHAPTSRGGASVEETDQSHLATAGSTSSHSLQKYYITGEAEGFPATA
modifications: fusion protein Cre-ER(T2)
B3: Casp8-ER(T2): fusion of murine Caspase-8 domain to the ER(T2) ligand binding domain, SEQ ID NO: 20 (protein)
chain: MSESRTSDKVYQMKNKPRGYCLIINNHDFSKAREDITQLRKMKDRKGTDCDKEALSKTFKELHFEIVSYDDCTANEIHEILEGYQSADHKNKDCFICCILSHGDKGVVYGTDGKEASIYDLTSYFTGSKCPSLSGKPKIFFIQACQGSNFQKGVPDEAGFEQQNHTLEVDSSSHKNYIPDEADFLLGMATVKNCVSYRDPVNGTWYIQSLCQSLRERCPQGDDILSILTGVNYDVSNKDDRRNKGKQMPQPTFTLRKKLFFPPLEPSAGDMRAANLWPSPLMIKRSKKNSLALSLTADQMVSALLDAEPPILYSEYDPTRPFSEASMMGLLTNLADRELVHMINWAKRVPGFVDLTLHDQVHLLECAWLEILMIGLVWRSMEHPVKLLFAPNLLLDRNQGKCVEGMVEIFDMLLATSSRFRMMNLQGEEFVCLKSIILLNSGVYTFLSSTLKSLEEKDHIHRVLDKITDTLIHLMAKAGLTLQQQHQRLAQLLLILSHIRHMSNKGMEHLYSMKCKNVVPLYDLLLEAADAHRLHAPTSRGGASVEETDQSHLATAGSTSSHSLQKYYITGEAEGFPATA
modifications: fusion protein Casp8-ER(T2)

Assays:
Type in all cases: cell-based, mouse
[1] = system: MEF5/N9 cells; test: Transient cotransfection of ER(T2) fusion expression vectors with β-galactosidase reporter; β-galactosidase activity in lysates; details: 10^−8 M 4-OH-tamoxifen, 48 h; for relative β-galactosidase activity in presence of 4-OH-tamoxifen compared to the negative control: relative to Cre-ER(T2) without 4-OH-tamoxifen
Experimental: The transformed mouse embryonic fibroblast cell line MEF5/N9 (Schwenk et al., Nucleic Acids Research, 26(6) 1427-1432 (1998)) was obtained from Michel Aguet (University of Zurich, Switzerland). The cells were grown in DMEM medium (Life Technologies) supplemented with 2 mM […] and 10% fetal calf serum at 37° C., 5% CO2 in humid atmosphere and passaged upon trypsinization. One day before transient transfection 4·10^4 cells were plated into a 24-well plate (Falcon). For the transient transfection of MEF5/N9 cells with plasmids, each well received into 500 μl of medium a total amount of 150 ng or 200 ng supercoiled plasmid DNA complexed before with the FuGene6 transfection reagent (Roche Diagnostics GmbH, Mannheim, Germany) according to the manufacturer's protocol. Each 150 ng or 200 ng DNA preparation (FIG. 2 sample 1 to 11) contained 100 ng of the β-Galactosidase expression vector pCMV-β-gal-pA (pCMVβ, Clontech, FIG. 1G, SEQ ID NO: 56), and 100 ng of the fusion ER(T2) expression vectors to be tested (FIG. 2 sample 3-7, 10-11) and the control plasmids (FIG. 2 sample 1-3), except for the samples with the plasmids pCAG-Casp9full-ER(T2)-bpA (FIG. 2 sample 8) and pCAG-Casp9trunc-ER(T2)-bpA (FIG. 2 sample 9), respectively, that received 50 ng of the test vector. For each sample to be tested four individual wells were transfected. Five hours after the addition of the DNA preparations each well received additional 500 μl of growth medium. The following day, the medium of two wells of each sample was replaced by fresh medium. The other two wells received medium containing 10^−8 M 4-hydroxy-tamoxifen (Sigma). 48 hours after induction with 4-OH-tamoxifen, the cells of each well were lysed with 200 μl lysate reagent supplemented with protease inhibitors (Roche Diagnostics GmbH). The lysates were centrifuged and 50 μl were used to determine the β-galactosidase activities using the β-galactosidase reporter gene assay (Roche Diagnostics GmbH) according to the manufacturer's protocol in a microplate luminometer (Berthold Detection Systems GmbH). The mean value and standard deviation of the samples was calculated from the β-galactosidase RLU values obtained from the two transfected wells of each sample. The relative β-galactosidase activity was obtained by comparison to the negative control (pCAG-Cre-ER(T2)-bpA) without 4-OH-tamoxifen.
To investigate the cell death effect of the different ER(T2) fusion constructs quantitatively, we performed transient cotransfections of the ER(T2) fusion protein expression vectors together with a fixed amount of a reporter plasmid coding for β-galactosidase in MEF5/N9 fibroblast cells. Transfected cells were treated 12 hours after transfection with 4-OH-tamoxifen at a concentration of 10^−8 M. Following 48 hours of 4-OH-tamoxifen induction, the cells from the various samples were lysed and the activity of β-galactosidase in the lysates was determined by a chemiluminescence assay and expressed in “Relative Light Units” (RLU) (FIG. 2). As positive controls for 4-OH-tamoxifen-inducible cell death, we prepared samples transfected with the constructs pCAG-HAFas-ER(T2) or pCAG-MFas-ER(T2) together with the reporter plasmid and treatment with 4-OH-tamoxifen. As negative control for this assay served samples which received the reporter plasmid together with the expression vector pCAG-Cre-ER(T2) and that were treated with 4-OH-tamoxifen.
To determine the relative activity of the tested ER(T2) fusion constructs inducing apoptosis in the presence of 4-OH-tamoxifen, the RLU values of β-galactosidase activity were divided individually for each sample by the RLU value obtained from the sample which received the plasmid pCAG-Cre-ER(T2) but was not treated with 4-OH-tamoxifen (defined as negative control). The relative activity of the tested Caspase- or bax-ER(T2) fusion proteins was then compared to the negative control for 4-OH-tamoxifen-dependent cell death defined as an activity of 1.

[2] = system: MEF5/N9 cells; test: Visible phenotypic changes / viability of stably transfected MEF5/N9 clones on 4-OH-tamoxifen treatment; details: 10^−8 M 4-OH-tamoxifen, 24 h
Experimental: (§1) To generate stably transfected MEF5/N9 cells, 2·10^6 cells were coelectroporated with 32 μg ER(T2) fusion plasmid DNA linearised with ScaI and 8 μg pPgk-hygro-pA plasmid DNA linearised with XhoI and plated into two 96-well plates. The cells were grown in DMEM medium (Invitrogen) supplemented with 2 mM Glutamine and 10% fetal calf serum at 37° C., 5% CO2 in humid atmosphere, and passaged upon trypsinization. Two days after transfection the medium was supplemented with 250 U/ml of hygromycin (Calbiochem) for the selection of stable integrants. Upon the growth of resistant colonies these were individually expanded in the presence of hygromycin.
To examine 4-OH-tamoxifen-dependent cell death, 1·10^5 MEF5/N9 cells expressing ER(T2) fusion proteins were plated into each well of a six-well plate. The following day, for each sample the medium in two of four individual wells were replaced with medium supplemented with 10^−8 M 4-hydroxy-tamoxifen. 24 hours after induction with 4-OH-tamoxifen, cells were photographed through a Leica DMI6000B fluorescence microscope with phase contrast either at 10-fold or 20-fold magnification.
Since the responsiveness of the clones, transfected with the same construct, to 4-OH-tamoxifen differed only slightly from each other, only the results obtained from one clone for each construct are shown in the figure.

[3] = system: MEF5/N9 cells; test: MTT cytotoxicity assay of stably transfected MEF5/N9 clones; details: 10^−8 M 4-OH-tamoxifen, 48 h
Experimental: as §1
To quantify 4-OH-tamoxifen-inducible cell death, we applied the colorimetric MTT assay (Mossman, J. Immunol. Methods, 65, 55 (1983)) allowing the quantification of cell survival. Cells (4·10^3) were plated on 96-well plates. The assay was carried out in three replicas for each sample treated with and without 4-OH-tamoxifen. After 12 h, medium was replaced either with fresh medium or with medium supplemented with 10^−8 M 4-OH-tamoxifen. Following 48 h of 4-OH-tamoxifen treatment, sterile filtered MTT reagent in PBS (Sigma) was added at the concentration of 0.5 mg/ml. Incubation occurred for 4 hours at 37° C. With ongoing reaction time, dark violet MTT formazan crystals appeared on the bottom of the wells containing living cells. The crystals were dissolved in 150 μl 0.04 N HCl/isopropanol to give a homogeneous blue solution suitable for absorbance measurement at a wavelength of 570 nm on the Synergy™ HT Multi-Detection Microplate Reader (BioTek).

[4] = system: MEF5/N9 cells; test: Transient cotransfection of ER(T2) fusion expression vectors with β-galactosidase reporter; β-galactosidase activity in lysates; details: no 4-OH-tamoxifen; transient transfection 50 or 100 ng vector; relative to Cre-ER(T2) without 4-OH-tamoxifen

Molecule	relative β-galactosidase activity in presence of 4-OH-tamoxifen compared to the negative control [1] [%]	4-OH-tamoxifen-dependent cell death, phenotype of stable clones [2]	4-OH-tamoxifen-dependent cell death, phenotype of stable clones ([2]; listed as myrCasp8ER)	cell viability in the presence of 4-OH-tamoxifen (MTT) [3]	basal toxicity: relative β-galactosidase activity compared to the negative control in absence of 4-OH-tamoxifen [4] [%]	4-OH-tamoxifen-dependent activity / toxicity in transient transfection (in words) [1]	4-OH-tamoxifen-dependent cell death, phenotype of stable clones ([2]; listed as CreER)	4-OH-tamoxifen-dependent cell death, phenotype of stable clones ([2]; listed as Casp8ER)
B1	0.1	died in the presence of 4-OH-tamoxifen within 24 h	substantial cell death	9%	6	–	–	–
B2	–	did not respond to 4-OH-tamoxifen	–	not affected by treatment with 4-OH-tamoxifen	–	Neither the expression of the negative control Cre-ER(T2) alone nor the combined treatment with 4-OH-tamoxifen at the concentration of 10^−8 M displayed toxic side effects	not affected by the treatment with 4-OH-tamoxifen	–
B3	3	died in the presence of 4-OH-tamoxifen within 24 h	–	31%	17	–	–	substantial cell death
